The values below come from the DeepSol protein solubility set.

This data set is described as follows: soluble on expression in E. coli; label from the status in PepcDB or PDB records.
Turning to “IGKLKLSARGTFTFTRNKILEYDELPQKYGYQAVTGTRVSENTLYIADRLYTEDDFIVSTNANGLKTYKLRSELPRPTLGGLIGPGDIKYVDVNGDGVIDSYDQVRGVGNPSTPEIIYGFGLNAEYKGFYASIFFQGAGNTSVLLGGATSEGWYPFSWGVDQSNYRTFALDRWTENNPSQDVIIPRLHKNNANNANNRVASTWWLRNGSFLRLKNIEFGYQLPKKFMDKIGFEAARIYIMGYNLAVWDDIKYFDPEAGNANAGLNYPLPRTFTLGLDFTF”, the “soluble on expression in E. coli” value is given as “not soluble”.
Take “IKDFSYGARFNLSDQKDKLVDYGVEYNGFVAGVNQKVQGYSLGSIFGYRTDGYFTSEEEVKNSAAFNKAITGVGDIKYIDKDGDGKISAPNDLEYLGTTTPRYTFGLNLTAAWKGFDLGVLLQGVGKRNFYLSSEVMNPYYATWNNFSYKMHNDYWTPENPNAAFPRYYAGANHNYQISDHWLQNAAYVRLKNLQLGYTISPKLTKSWGIQRLRVYFSGDNLCEYSKLNDNFDPELSDINGYVYPIMRNFSFGINVTL”: the “soluble on expression in E. coli” value was “not soluble”.
With “IKDWTWKMGGNISYNKNKVVTLPDNGQPKNRIGGQQIYTGRKVLDEAGNQVDEVIFVGGKQEGQEPGILVGYKAEGLYKDWKDIPGDLVVKTGNYQGKYQYGPKAYAALSDAEKAKALQIEPGDVKWKDINNDGTIDAFDQIVIGNTTPHWFGGFNTTLTWKGLTLYGRFDFALDYWIYDNTTPWFLGCMQGGYNTTTDVFNTWSEENPNAKYPRYVWADQLGTANYYRTSTMFAYKGNYLAIREISLSYSLPQNIARKFYCQKLDVSVTGQNLGYITSANVATPEVSSAGSGYALPRTLLFGINVTF”, the “soluble on expression in E. coli” value is reported as “not soluble”.
The entry for “INTVGYLEQKMFAAMVADNQMAMVMLNPKNLKASNGEEELAGQTWYWKVAPVATTQPLLKAFDVSVAAEKQASPIITVRSYVAK” is “soluble”.
With “IPEYVDWRQKGAVTPVKNQGSCGSCWAFSAVVTIEGIIKIRTGNLNQYSEQELLDCDRRSYGCNGGYPWSALQLVAQYGIHYRNTYPYEGVQRYCRSREKGPYAAKTDGVRQVQPYNQGALLYSIANQPVSVVLQAAGKDFQLYRGGIFVGPCGNKVDHAVAAVGYGPNYILIKNSWGTGWGENGYIRIKRGTGNSYGVCGLYTSSFYPVKN”, the “soluble on expression in E. coli” value is “soluble”.
The result for “IQVFVKNPDGGSYAYAINPNSFILGLKQQIEDQQGLPKKQQQLEFQGQVLQDWLGLGIYGIQDSDTLILSKKKG” reads “soluble”; that for “ISFVIAAPEAIAAAATDLASIGSTIGAANAAAAANTTAVLAAGADQVSVAIAAAFGAHGQAYQALSAQAATFHIQFVQALTAGAGSYAAAEAASAASITSPLLDAINAPFLAALGRPLIGNGADGAPGTGAAGGAGGLLFGNGGAGGSGAPGGAGGLLFGNGGAGGPGASGGALG”, “not soluble”; that for “ITDRKVLERELATRNAFLTAVLQTSVSAIVALNAEGGIVYANDEARRLLVLQPHRGGLRMEAVLETLDGRPLPEADMPSALVRATGAPLHDLRYAIRRPDGQFGILSINAAPLPQAADDARIVISVTDIT”, “not soluble”.
The entry for “KATRDSSTLNVDTYVNWIKRVFRPQRLRLLERKELVVEEADYEYALGEIANVRSDAQQMLGSRIMSRPLPFIWLFGGDLSSQKELSVRVDTMVEYLHNTTDNLIFAKLMDVPPLPTTLSHWLPKDKRS” is “not soluble”.
The entry for “KCLVLDLDGTLWGGVVGEDGIEGIKLGPTGSGKPFYEFQKYIKSLFKKGVILAVNSKNNYDDAMEVIRKHPYMVLREEDFADFEINWQDKASNMRAIAKKLNIGIDSMVFMDDD” is “not soluble”; for “KDFLAMFSPKCGGCNRPVLENYLSAMDTVWHPECFVCGDCFTSFSTGSFFELDGRPFCELHYHHRRG” it is “soluble”.
On to “KFRTMRQNLQEASDVLDDQIESFTKIIQNHYKLSPNDFADPTIQSQSEIYAVGRIVPDSPTYDKFLNPESLSLETSRMGGVGRRVRLDLSQVNELSFFLGQIVAFKGKNANGDYFTVNSILPLPYPNSPVSTSQELQEFQANLEGSSLKVIVTCGPYFANDNFSLELLQEFIDSINNEVKPHVLIMFGPFIDITHPLIASGKLPNFPQFKTQPKTLDELFLKLFTPILKTISPHIQTVLIPSTKDAISNHAAYPQASLIRKALQLPKRNFKCMANPSSFQINEIYFGCSNVDTFKDLKEVIKGGTTSSRYRLDRVSEHILQQRRYYPIFPGSIRTRIKPKDVSTKKETNDMESKEEKVYEHISGADLDVSYLGLTEFVGGFSPDIMIIPSELQHFARVVQNVVVINPGRFIRATGNRGSYAQITVQCPDLEDGKLTLVEGEEPVYLHNVWKRARVDLIAS”, for which the “soluble on expression in E. coli” value was “soluble”.
